The values below come from US20040170969A1 (published 2004).

The labels stand for the following.
B2: DKFZp434D174.1 (GI 7512558) (other, UniProt P57678 1-1058, looked up)
chain: MDLGPLNICEEMTILHGGFLLAEQLFHPKALAELTKSDWERVGRPIVEALREISSAAAHSQPFAWKKKALIIIWAKVLQPHPVTPSDTETRWQEDLFFSVGNMIPTINHTILFELLKSLEASGLFIQLLMALPTTICHAELERFLEHVTVDTSAEDVAFFLDVWWEVMKHKGHPQDPLLSQFSAMAHKYLPALDEFPHPPKRLRSDPDACPTMPLLAMLLRGLTQIQSRILGPGRKCCALANLADMLTVFALTEDDPQEVSATVYLDKLATVISVWNSDTQNPYHQQALAEKVKEAERDVSLTSLAKLPSETIFVGCEFLHHLLREWGEELQAVLRSSQGTSYDSYRLCDSLTSFSQNATLYLNRTSLSKEDRQVVSELAECVRDFLRKTSTVLKNRALEDITASIAMAVIQQKMDRHMEVCYIFASEKKWAFSDEWVACLGSNRALFRQPDLVLRLLETVIDVSTADRAIPESQIRQVIHLILECYADLSLPGKNKVLAGILRSWGRKGLSEKLLAYVEGFQEDLNTTFNQLTQSASEQGLAKAVASVARLVIVHPEVTVKKMCSLAVVNLGTHKFLAQILTAFPALRFVEEQGPNSSATFMVSCLKETVWMKFSTPKEEKQFLELLNCLMSPVKPQGIPVAALLEPDEVLKEFVLPFLRLDVEEVDLSLRIFIQTLEANACREEYWLQTCSPFPLLFSLCQLLDRFSKYWQLPKEKRCLSLDRKDLAIHILELLCEIVSANAETFSPDVWIKSLSWLHRKLEQLDWTVGLRLKSFFEGHFKCEVPATLFEICKLSEDEWTSQAHPGYGAGTGLLAWMECCCVSSGISERMLSLLVVDVGNPEEVRLFSKGFLVALVQVMPWCSPQEWQRLHQLTRRLLEKQLLHVPYSLEYIQFVPLLNLKPFAQELQLSVLFLRTFQFLCSHSCRDWLPLEGWNHVVKLLCGSLTRLLDSVRAIQAAGPWVQGPEQDLTQEALFVYTQVFCHALHIMAMLHPEVCEPLYVLALETLTCYETLSKTNPSVSSLLQRAHEQRFLKSIAEGIGPEERRQTLLQKMSSF
notes: also called gemin4; gemin 4

Assay [1] addresses B2. The assay is described as follows: anti-FLAG co-IP, MS.
Method: (§1) Forty-eight hours (h or hr) later, transfected cells (approximately 1×10⁸ cells) were washed in Tris-Saline (25 mM Tris-HCl pH 7.5, 140 mM NaCl, 8 mM KCl, 700 μM Na₂HPO₄, 5.5 mM glucose) and lysed in Lysis Buffer (KLB, 20 mM Tris-HCl pH7.5, 150 mM NaCl, 1% NP40, 0.5% sodium deoxycholate, and 0.2 mM AEBSF (4-(2-aminoethyl)-benzenesulfonyl fluoride)). Following centrifugation to remove insoluble material, clarified lysates were incubated with Sepharose-4B (10 μl packed sepharose/ml of lysate) for 20 min at 4° C. with gentle mixing (by end-over-end inversion). The supernatant was then incubated with immobilized anti-Flag monoclonal antibodies (M2-agarose, Sigma-Aldrich; 1 μl packed M2-agarose/ml lysate) for 60 min at 4° C. with gentle mixing. The M2-agarose was washed two times with 1 ml KLB lacking AEBSF, and washed one time with 1 ml of 50 mM ammonium bicarbonate. […] After 30 min at 4° C., the M2-agarose beads were removed by centrifugation, the eluted proteins were lyophilized by vacuum centrifugation and resuspended in SDS-PAGE sample buffer.
In assay [2] the target is T1, Flag-epitope-tagged murine Ras-GRF2 (murine, UniProt P70392 1-1189, limits assumed).
T1 construct: Bait; expressed stably (Clone 13, Clone 21) or transiently in human 293 cells; also called Flag-GRF2; FLAG-GRF2
T1 sequence (looked up): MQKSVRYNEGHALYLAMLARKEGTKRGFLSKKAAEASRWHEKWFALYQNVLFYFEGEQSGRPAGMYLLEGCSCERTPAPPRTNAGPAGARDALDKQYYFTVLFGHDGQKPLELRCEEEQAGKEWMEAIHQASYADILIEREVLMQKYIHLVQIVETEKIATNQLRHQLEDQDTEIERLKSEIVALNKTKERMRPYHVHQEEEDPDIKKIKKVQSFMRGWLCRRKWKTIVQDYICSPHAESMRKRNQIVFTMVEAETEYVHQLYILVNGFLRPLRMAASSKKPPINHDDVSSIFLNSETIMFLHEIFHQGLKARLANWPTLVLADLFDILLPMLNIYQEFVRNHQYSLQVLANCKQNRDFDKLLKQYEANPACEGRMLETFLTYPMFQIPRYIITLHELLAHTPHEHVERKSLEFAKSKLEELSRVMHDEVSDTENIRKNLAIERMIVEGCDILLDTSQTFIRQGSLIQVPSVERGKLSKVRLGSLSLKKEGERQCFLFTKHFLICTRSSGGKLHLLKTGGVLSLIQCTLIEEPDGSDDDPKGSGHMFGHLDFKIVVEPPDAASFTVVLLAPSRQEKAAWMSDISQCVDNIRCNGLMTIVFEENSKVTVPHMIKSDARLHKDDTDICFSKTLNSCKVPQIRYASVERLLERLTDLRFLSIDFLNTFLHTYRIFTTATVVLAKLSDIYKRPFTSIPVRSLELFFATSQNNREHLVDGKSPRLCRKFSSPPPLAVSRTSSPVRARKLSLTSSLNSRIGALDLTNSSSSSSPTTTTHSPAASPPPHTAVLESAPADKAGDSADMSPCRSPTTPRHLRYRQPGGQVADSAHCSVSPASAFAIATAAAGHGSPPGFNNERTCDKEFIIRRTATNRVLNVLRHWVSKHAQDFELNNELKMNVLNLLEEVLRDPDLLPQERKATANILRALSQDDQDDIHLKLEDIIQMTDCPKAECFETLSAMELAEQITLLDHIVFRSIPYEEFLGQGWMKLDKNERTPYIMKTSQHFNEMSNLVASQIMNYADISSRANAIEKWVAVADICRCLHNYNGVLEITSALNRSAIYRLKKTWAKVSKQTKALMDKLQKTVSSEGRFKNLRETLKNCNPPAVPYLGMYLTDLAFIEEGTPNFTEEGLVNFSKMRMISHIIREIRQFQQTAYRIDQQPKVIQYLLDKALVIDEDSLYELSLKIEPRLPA
Briefly: anti-FLAG co-IP, MS.
Method: as §1

B1: FLAG-Ndr (K118A) mutant fusion protein (enzyme, not shown: small tags and cut ends)
chain: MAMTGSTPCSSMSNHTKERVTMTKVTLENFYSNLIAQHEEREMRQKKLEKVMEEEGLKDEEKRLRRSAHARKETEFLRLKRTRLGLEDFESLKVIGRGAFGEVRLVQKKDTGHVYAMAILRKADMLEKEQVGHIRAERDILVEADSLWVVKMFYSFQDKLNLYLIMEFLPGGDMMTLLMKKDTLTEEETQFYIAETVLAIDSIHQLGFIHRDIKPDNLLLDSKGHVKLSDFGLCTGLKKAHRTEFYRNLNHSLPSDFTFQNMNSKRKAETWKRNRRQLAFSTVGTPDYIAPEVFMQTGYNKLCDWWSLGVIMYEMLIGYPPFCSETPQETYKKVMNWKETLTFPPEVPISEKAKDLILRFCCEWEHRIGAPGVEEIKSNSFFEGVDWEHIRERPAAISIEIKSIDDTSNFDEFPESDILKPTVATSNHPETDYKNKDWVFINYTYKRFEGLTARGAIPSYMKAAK
notes: also called K118A Ndr
Take B1: the binding result in assay [1] was “no binding”.

Turning to B2, the binding result in assay [2] is “no binding”.

B3: protein 4.1 isoB (GI 182074) (other, UniProt P11171-3 1-641, looked up)
chain: MHCKVSLLDDTVYECVVEKHAKGQDLLKRVCEHLNLLEEDYFGLAIWDNATSKTWLDSAKEIKKQVRGVPWNFTFNVKFYPPDPAQLTEDITRYYLCLQLRQDIVAGRLPCSFATLALLGSYTIQSELGDYDPELHGVDYVSDFKLAPNQTKELEEKVMELHKSYRSMTPAQADLEFLENAKKLSMYGVDLHKAKDLEGVDIILGVCSSGLLVYKDKLRINRFPWPKVLKISYKRSSFFIKIRPGEQEQYESTIGFKLPSYRAAKKLWKVCVEHHTFFRLTSTDTIPKSKFLALGSKFRYSGRTQAQTRQASALIDRPAPHFERTASKRASRSLDGAAAVDSADRSPRPTSAPAITQGQVAEGGVLDASAKKTVVPKAQKETVKAEVKKEDEPPEQAEPEPTEAWKVEKTHIEVTVPTSNGDQTQKKRERLDGENIYIRHSNLMLEDLDKSQEEIKKHHASISELKKNFMESVPEPRPSEWDKRLSTHSPFRTLNINGQIPTGEGPPLVKTQTVTISDNANAVKSEIPTKDVPIVHTETKTITYEAAQTDDNSGDLDPGVLLTAQTITSETPSSTTTTQITKTVKGGISETRIEKRIVITGDADIDHDQVLVQAIKEAKEQHPDMSVTKVVVHQETEIADE
notes: also called Erythroid protein 4.1 isoform B
Regarding B3, the binding result in assay [2] is “no binding”.

B4: FLAG-Ndr (cells treated with okadaic acid) (enzyme, not shown: small tags and cut ends)
chain: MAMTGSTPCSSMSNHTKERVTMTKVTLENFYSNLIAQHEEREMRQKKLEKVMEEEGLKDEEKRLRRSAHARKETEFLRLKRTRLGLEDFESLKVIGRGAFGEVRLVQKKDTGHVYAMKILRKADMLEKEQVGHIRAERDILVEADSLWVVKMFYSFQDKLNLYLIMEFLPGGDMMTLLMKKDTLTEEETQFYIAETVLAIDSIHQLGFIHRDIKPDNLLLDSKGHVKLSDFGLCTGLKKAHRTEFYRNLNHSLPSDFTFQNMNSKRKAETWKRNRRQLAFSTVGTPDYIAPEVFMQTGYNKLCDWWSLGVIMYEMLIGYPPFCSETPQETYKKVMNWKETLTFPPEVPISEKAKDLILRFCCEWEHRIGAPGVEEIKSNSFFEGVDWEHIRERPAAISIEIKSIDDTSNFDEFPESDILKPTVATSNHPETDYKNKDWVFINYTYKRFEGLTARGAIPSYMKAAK
notes: also called Ndr bait; active Ndr
For the molecule B4, the binding result in assay [1] was “no binding”.

B5: FLAG-PP2C (enzyme, human, UniProt O75688 1-479, looked up, not shown: small tags and cut ends)
chain: MGAFLDKPKTEKHNAHGAGNGLRYGLSSMQGWRVEMEDAHTAVVGIPHGLEDWSFFAVYDGHAGSRVANYCSTHLLEHITTNEDFRAAGKSGSALELSVENVKNGIRTGFLKIDEYMRNFSDLRNGMDRSGSTAVGVMISPKHIYFINCGDSRAVLYRNGQVCFSTQDHKPCNPREKERIQNAGGSVMIQRVNGSLAVSRALGDYDYKCVDGKGPTEQLVSPEPEVYEILRAEEDEFIILACDGIWDVMSNEELCEYVKSRLEVSDDLENVCNWVVDTCLHKGSRDNMSIVLVCFSNAPKVSDEAVKKDSELDKHLESRVEEIMEKSGEEGMPDLAHVMRILSAENIPNLPPGGGLAGKRNVIEAVYSRLNPHRESDGASDEAEESGSQGKLVEALRQMRINHRGNYRQLLEEMLTSYRLAKVEGEESPAEPAATATSSNSDAGNPVTMQESHTESESGLAELDSSNEDAGTKMSGEKI
notes: also called PP2C bait
Regarding B5, in assay [1], the binding result is on record as “no binding”.
